# * marks the point of attachment. Palmitoyl = CCCCCCCCCCCCCCCC(=O)*
# Biological target: PTHR1 receptor
# Sequence (P25961 whole entry): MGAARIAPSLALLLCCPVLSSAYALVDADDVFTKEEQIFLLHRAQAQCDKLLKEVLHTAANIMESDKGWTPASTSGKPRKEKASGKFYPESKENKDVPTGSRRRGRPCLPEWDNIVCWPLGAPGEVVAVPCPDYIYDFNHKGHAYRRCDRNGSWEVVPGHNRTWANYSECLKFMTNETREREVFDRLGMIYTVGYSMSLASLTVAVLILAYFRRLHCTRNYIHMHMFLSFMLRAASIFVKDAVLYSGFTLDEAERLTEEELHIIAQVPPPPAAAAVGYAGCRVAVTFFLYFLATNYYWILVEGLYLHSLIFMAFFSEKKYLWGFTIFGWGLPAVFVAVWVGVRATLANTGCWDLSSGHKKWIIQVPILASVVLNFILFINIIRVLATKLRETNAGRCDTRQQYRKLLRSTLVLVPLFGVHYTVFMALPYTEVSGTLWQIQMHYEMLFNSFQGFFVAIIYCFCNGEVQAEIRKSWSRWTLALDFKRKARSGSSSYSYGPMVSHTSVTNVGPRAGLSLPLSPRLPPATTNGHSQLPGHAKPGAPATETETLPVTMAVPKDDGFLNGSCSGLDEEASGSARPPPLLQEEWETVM
Binder,Fold Shift of EC50,Inhibition of Maximal Response
Palmitoyl-TNAGRSDARQQYRKLL-NH2 (SMILES CCCCCCCCCCCCCCCC(=O)N[C@H](C(=O)N[C@@H](CC(N)=O)C(=O)N[C@@H](C)C(=O)NCC(=O)N[C@@H](CCCNC(=N)N)C(=O)N[C@@H](CO)C(=O)N[C@@H](CC(=O)O)C(=O)N[C@@H](C)C(=O)N[C@@H](CCCNC(=N)N)C(=O)N[C@@H](CCC(N)=O)C(=O)N[C@@H](CCC(N)=O)C(=O)N[C@@H](Cc1ccc(O)cc1)C(=O)N[C@@H](CCCNC(=N)N)C(=O)N[C@@H](CCCCN)C(=O)N[C@@H](CC(C)C)C(=O)N[C@@H](CC(C)C)C(N)=O)[C@@H](C)O) [Compound 79],7.2 fold,1.2%
Palmitoyl-TNAGRSDTRAQYRKLL-NH2 (SMILES CCCCCCCCCCCCCCCC(=O)N[C@H](C(=O)N[C@@H](CC(N)=O)C(=O)N[C@@H](C)C(=O)NCC(=O)N[C@@H](CCCNC(=N)N)C(=O)N[C@@H](CO)C(=O)N[C@@H](CC(=O)O)C(=O)N[C@H](C(=O)N[C@@H](CCCNC(=N)N)C(=O)N[C@@H](C)C(=O)N[C@@H](CCC(N)=O)C(=O)N[C@@H](Cc1ccc(O)cc1)C(=O)N[C@@H](CCCNC(=N)N)C(=O)N[C@@H](CCCCN)C(=O)N[C@@H](CC(C)C)C(=O)N[C@@H](CC(C)C)C(N)=O)[C@@H](C)O)[C@@H](C)O) [Compound 81],13.8 fold,-20.8%
Palmitoyl-TNAGASDTRQQYRKLL-NH2 (SMILES CCCCCCCCCCCCCCCC(=O)N[C@H](C(=O)N[C@@H](CC(N)=O)C(=O)N[C@@H](C)C(=O)NCC(=O)N[C@@H](C)C(=O)N[C@@H](CO)C(=O)N[C@@H](CC(=O)O)C(=O)N[C@H](C(=O)N[C@@H](CCCNC(=N)N)C(=O)N[C@@H](CCC(N)=O)C(=O)N[C@@H](CCC(N)=O)C(=O)N[C@@H](Cc1ccc(O)cc1)C(=O)N[C@@H](CCCNC(=N)N)C(=O)N[C@@H](CCCCN)C(=O)N[C@@H](CC(C)C)C(=O)N[C@@H](CC(C)C)C(N)=O)[C@@H](C)O)[C@@H](C)O) [Compound 76],16.9 fold,2.4%
Palmitoyl-TNAGRSDTAQQYRKLL-NH2 (SMILES CCCCCCCCCCCCCCCC(=O)N[C@H](C(=O)N[C@@H](CC(N)=O)C(=O)N[C@@H](C)C(=O)NCC(=O)N[C@@H](CCCNC(=N)N)C(=O)N[C@@H](CO)C(=O)N[C@@H](CC(=O)O)C(=O)N[C@H](C(=O)N[C@@H](C)C(=O)N[C@@H](CCC(N)=O)C(=O)N[C@@H](CCC(N)=O)C(=O)N[C@@H](Cc1ccc(O)cc1)C(=O)N[C@@H](CCCNC(=N)N)C(=O)N[C@@H](CCCCN)C(=O)N[C@@H](CC(C)C)C(=O)N[C@@H](CC(C)C)C(N)=O)[C@@H](C)O)[C@@H](C)O) [Compound 78],12.7 fold,-29.2%
Palmitoyl-TNAGRADTRQQYRKLL-NH2 (SMILES CCCCCCCCCCCCCCCC(=O)N[C@H](C(=O)N[C@@H](CC(N)=O)C(=O)N[C@@H](C)C(=O)NCC(=O)N[C@@H](CCCNC(=N)N)C(=O)N[C@@H](C)C(=O)N[C@@H](CC(=O)O)C(=O)N[C@H](C(=O)N[C@@H](CCCNC(=N)N)C(=O)N[C@@H](CCC(N)=O)C(=O)N[C@@H](CCC(N)=O)C(=O)N[C@@H](Cc1ccc(O)cc1)C(=O)N[C@@H](CCCNC(=N)N)C(=O)N[C@@H](CCCCN)C(=O)N[C@@H](CC(C)C)C(=O)N[C@@H](CC(C)C)C(N)=O)[C@@H](C)O)[C@@H](C)O) [Compound 77],6.9 fold,9.9%
Palmitoyl-TNAARSDTRQQYRKLL-NH2 (SMILES CCCCCCCCCCCCCCCC(=O)N[C@H](C(=O)N[C@@H](CC(N)=O)C(=O)N[C@@H](C)C(=O)N[C@@H](C)C(=O)N[C@@H](CCCNC(=N)N)C(=O)N[C@@H](CO)C(=O)N[C@@H](CC(=O)O)C(=O)N[C@H](C(=O)N[C@@H](CCCNC(=N)N)C(=O)N[C@@H](CCC(N)=O)C(=O)N[C@@H](CCC(N)=O)C(=O)N[C@@H](Cc1ccc(O)cc1)C(=O)N[C@@H](CCCNC(=N)N)C(=O)N[C@@H](CCCCN)C(=O)N[C@@H](CC(C)C)C(=O)N[C@@H](CC(C)C)C(N)=O)[C@@H](C)O)[C@@H](C)O) [Compound 80],2.3 fold,0.8%
Palmitoyl-TNAGRSATRQQYRKLL-NH2 (SMILES CCCCCCCCCCCCCCCC(=O)N[C@H](C(=O)N[C@@H](CC(N)=O)C(=O)N[C@@H](C)C(=O)NCC(=O)N[C@@H](CCCNC(=N)N)C(=O)N[C@@H](CO)C(=O)N[C@@H](C)C(=O)N[C@H](C(=O)N[C@@H](CCCNC(=N)N)C(=O)N[C@@H](CCC(N)=O)C(=O)N[C@@H](CCC(N)=O)C(=O)N[C@@H](Cc1ccc(O)cc1)C(=O)N[C@@H](CCCNC(=N)N)C(=O)N[C@@H](CCCCN)C(=O)N[C@@H](CC(C)C)C(=O)N[C@@H](CC(C)C)C(N)=O)[C@@H](C)O)[C@@H](C)O) [Compound 82],23.4 fold,-21.6%
Palmitoyl-YFRRLHSTRNYIH-NH2 (SMILES CCCCCCCCCCCCCCCC(=O)N[C@@H](Cc1ccc(O)cc1)C(=O)N[C@@H](Cc1ccccc1)C(=O)N[C@@H](CCCNC(=N)N)C(=O)N[C@@H](CCCNC(=N)N)C(=O)N[C@@H](CC(C)C)C(=O)N[C@@H](Cc1c[nH]cn1)C(=O)N[C@@H](CO)C(=O)N[C@H](C(=O)N[C@@H](CCCNC(=N)N)C(=O)N[C@@H](CC(N)=O)C(=O)N[C@@H](Cc1ccc(O)cc1)C(=O)N[C@H](C(=O)N[C@@H](Cc1c[nH]cn1)C(N)=O)[C@@H](C)CC)[C@@H](C)O) [Compound 6],1 fold,10.8%

# More lines, now with the values ahead:
Fold Shift of EC50,Inhibition of Maximal Response,Binder
1.8 fold,26.8%,Palmitoyl-NGEVQAEIKKSWSR-NH2 (SMILES CCCCCCCCCCCCCCCC(=O)N[C@@H](CC(N)=O)C(=O)NCC(=O)N[C@@H](CCC(=O)O)C(=O)N[C@H](C(=O)N[C@@H](CCC(N)=O)C(=O)N[C@@H](C)C(=O)N[C@@H](CCC(=O)O)C(=O)N[C@H](C(=O)N[C@@H](CCCCN)C(=O)N[C@@H](CCCCN)C(=O)N[C@@H](CO)C(=O)N[C@@H](Cc1c[nH]c2ccccc12)C(=O)N[C@@H](CO)C(=O)N[C@@H](CCCNC(=N)N)C(N)=O)[C@@H](C)CC)C(C)C) [Compound 100]
1.2 fold,-7.3%,Palmitoyl-WTLALDFKRKAR-NH2 (SMILES CCCCCCCCCCCCCCCC(=O)N[C@@H](Cc1c[nH]c2ccccc12)C(=O)N[C@H](C(=O)N[C@@H](CC(C)C)C(=O)N[C@@H](C)C(=O)N[C@@H](CC(C)C)C(=O)N[C@@H](CC(=O)O)C(=O)N[C@@H](Cc1ccccc1)C(=O)N[C@@H](CCCCN)C(=O)N[C@@H](CCCNC(=N)N)C(=O)N[C@@H](CCCCN)C(=O)N[C@@H](C)C(=O)N[C@@H](CCCNC(=N)N)C(N)=O)[C@@H](C)O) [Compound 103]
1.2 fold,25.3%,Palmitoyl-NGEVQAEIKKSWSRWT-NH2 (SMILES CCCCCCCCCCCCCCCC(=O)N[C@@H](CC(N)=O)C(=O)NCC(=O)N[C@@H](CCC(=O)O)C(=O)N[C@H](C(=O)N[C@@H](CCC(N)=O)C(=O)N[C@@H](C)C(=O)N[C@@H](CCC(=O)O)C(=O)N[C@H](C(=O)N[C@@H](CCCCN)C(=O)N[C@@H](CCCCN)C(=O)N[C@@H](CO)C(=O)N[C@@H](Cc1c[nH]c2ccccc12)C(=O)N[C@@H](CO)C(=O)N[C@@H](CCCNC(=N)N)C(=O)N[C@@H](Cc1c[nH]c2ccccc12)C(=O)N[C@H](C(N)=O)[C@@H](C)O)[C@@H](C)CC)C(C)C) [Compound 101]
1 fold,17.5%,Palmitoyl-NGEVQAEIKKSW-NH2 (SMILES CCCCCCCCCCCCCCCC(=O)N[C@@H](CC(N)=O)C(=O)NCC(=O)N[C@@H](CCC(=O)O)C(=O)N[C@H](C(=O)N[C@@H](CCC(N)=O)C(=O)N[C@@H](C)C(=O)N[C@@H](CCC(=O)O)C(=O)N[C@H](C(=O)N[C@@H](CCCCN)C(=O)N[C@@H](CCCCN)C(=O)N[C@@H](CO)C(=O)N[C@@H](Cc1c[nH]c2ccccc12)C(N)=O)[C@@H](C)CC)C(C)C) [Compound 99]
1.2 fold,26.8%,Palmitoyl-SRWTLALDFKRKAR-NH2 (SMILES CCCCCCCCCCCCCCCC(=O)N[C@@H](CO)C(=O)N[C@@H](CCCNC(=N)N)C(=O)N[C@@H](Cc1c[nH]c2ccccc12)C(=O)N[C@H](C(=O)N[C@@H](CC(C)C)C(=O)N[C@@H](C)C(=O)N[C@@H](CC(C)C)C(=O)N[C@@H](CC(=O)O)C(=O)N[C@@H](Cc1ccccc1)C(=O)N[C@@H](CCCCN)C(=O)N[C@@H](CCCNC(=N)N)C(=O)N[C@@H](CCCCN)C(=O)N[C@@H](C)C(=O)N[C@@H](CCCNC(=N)N)C(N)=O)[C@@H](C)O) [Compound 104]
1.1 fold,34%,Palmitoyl-NGEVQAEIKKSWSRWTLALD-NH2 (SMILES CCCCCCCCCCCCCCCC(=O)N[C@@H](CC(N)=O)C(=O)NCC(=O)N[C@@H](CCC(=O)O)C(=O)N[C@H](C(=O)N[C@@H](CCC(N)=O)C(=O)N[C@@H](C)C(=O)N[C@@H](CCC(=O)O)C(=O)N[C@H](C(=O)N[C@@H](CCCCN)C(=O)N[C@@H](CCCCN)C(=O)N[C@@H](CO)C(=O)N[C@@H](Cc1c[nH]c2ccccc12)C(=O)N[C@@H](CO)C(=O)N[C@@H](CCCNC(=N)N)C(=O)N[C@@H](Cc1c[nH]c2ccccc12)C(=O)N[C@H](C(=O)N[C@@H](CC(C)C)C(=O)N[C@@H](C)C(=O)N[C@@H](CC(C)C)C(=O)N[C@@H](CC(=O)O)C(N)=O)[C@@H](C)O)[C@@H](C)CC)C(C)C) [Compound 105]
